6 molecules from patent US20220372155A1 (LYVGEN BIOPHARMA, published 2022) can be followed below.

Assay [1] deals with T1, human CD40 expressed on CHO cells (human, UniProt P25942 21-277).
T1 construct: whole, on cells; also used for the reporter cells over-expressing human CD40; also called cellular CD40; CHO-CD40 cells
Briefly: FACS, CHO cells. (In general: Flow cytometry measures light scatter and fluorescence of single cells or particles in a stream.)

Assay [2] deals with T2, Human CD40 ECD protein (mouse IgG2a Fc tag) (human, UniProt P25942 21-193).
T2 construct: extracellular domain; also called Human CD40-msFc; human recombinant CD40; not shown: mouse IgG2a Fc tag
T2 sequence (P25942 21-193): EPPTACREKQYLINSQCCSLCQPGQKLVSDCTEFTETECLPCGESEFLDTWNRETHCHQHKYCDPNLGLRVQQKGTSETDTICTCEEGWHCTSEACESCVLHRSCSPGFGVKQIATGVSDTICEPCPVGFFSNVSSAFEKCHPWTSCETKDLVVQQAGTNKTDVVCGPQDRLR
Nature of the assay: bridging ELISA, coated B7H3-His, soluble CD40-msFc. On the procedure: Anti-B7H3/CD40 bi-specific antibodies were analyzed by ELISA for their simultaneous binding to recombinant human B7H3 and human CD40. Briefly, Human B7H3 CD protein (His-tag) was diluted and coated onto an ELISA plate with a volume of […] by incubation at 4° C. overnight. The next day, the plate was blocked with PBST-BSA buffer, then serially diluted samples of anti-B7H3/CD40 bi-specific antibodies were pipetted into appropriate wells at 50 μL/well, and the plate was incubated for 1 h followed by washing. Human CD40-msFc antibody was added into the plate at 50 μL/well. After 1-hour incubation at room temperature, […] anti-Mouse IgG (H+L) antibody was added into the plate at 100 μL/well. The plate was incubated for 1 hour at room temperature followed by washing. TMB substrate solution was added at 100 p L/well and the color development was stopped by adding 100 uUwell Stop Solution (2N H2SO4). Absorbance at 450 nm and 620 nm was read by Tecan F200 Pro plate reader. GraphPad 7.0, “[Agonist] vs. response—Variable slope (four parameters)” was used to plot the binding data and calculate binding EC50 values.

T1 sequence (P25942 21-277): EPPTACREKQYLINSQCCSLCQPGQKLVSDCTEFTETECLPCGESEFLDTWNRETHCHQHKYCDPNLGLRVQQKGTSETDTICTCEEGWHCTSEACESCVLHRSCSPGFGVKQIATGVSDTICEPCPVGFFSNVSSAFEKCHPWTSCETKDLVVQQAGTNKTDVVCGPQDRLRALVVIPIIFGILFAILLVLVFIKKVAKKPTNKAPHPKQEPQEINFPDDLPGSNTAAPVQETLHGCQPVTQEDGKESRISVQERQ

B1: Ly611 (bispecific antibody, human IgG1, kappa)
heavy: EVQLQQSGPELVKPGASVKMSCKASGYTFTSYVMHWVKQKPGQGLEWIGYINPYNDGTECTDKFKGKATLTSDKSSSTAYMELSSLTSEDSAVYYCASIYYGYDGTYFGVWGAGTSVTVSSASTKGPSVFPLAPSSKSTSGGTAALGCLVKDYFPEPVTVSWNSGALTSGVHTFPAVLQSSGLYSLSSVVTVPSSSLGTQTYICNVNHKPSNTKVDKKVEPKSCDKTHTCPPCPAPELLGPSVFLFPPKPKDTLMISRTPEVTCVVVDVSHEDPEVKFNWYVDGVEVHNAKTKPREEQYNSTYRVVSVLTVLHQDWLNGKEYKCKVSNKALPAPIEKTISKAKGQPREPQVYTLPPSREEMTKNQVSLTCLVKGFYPSDIAVEWESNGQPENNYKTTPPVLDSDGSFFLYSKLTVDKSRWQQGNVFSCSVMHEALHNHYTQKSLSLSPGGGGGSGGGGSGGGGSGGGGSQVQLVESGGGLVQPGGSLKLSCATSGFNFNDYFMNWVRQASGKGLEWVGQIRNKNYNYATYYTESLEGRVTISRDDSKNTAYLQMNSLKTEDTAVYYCTSYYYDGFADYFDYWGQGTTVTVSSGGGGSGGGGSGGGGSGGGGSDIQMTQSPSSLSASVGDRVTITCKASQNIYIYLNWYQQKPGKAPKLLIYNTNNLQTGVPSRFSGSGSGTDFTLTISSLQPEDFATYYCLQHSSRRTFGGGTKVEIK
light: QIVLSQSPAILSTSPGEKVTMTCRASSSVSYMHWYQQKPGSSPKPWIYATSNLASGVPARFSGSRSGTSYSLTISRVEAEDAATYYCQQWSSNTLTFGGGTKLELKRTVAAPSVFIFPPSDEQLKSGTASVVCLLNNFYPREAKVQWKVDNALQSGNSQESVTEQDSKDSTYSLSSTLTLSKADYEKHKVYACEVTHQGLSSPVTKSFNRGEC
notes: Ly383 HC (IgG1 mutated Fc)-TM740 scFv VH-VL + Ly383 LC
Turning to B1, the binding result in assay [1] and in assay [2] was “binds” throughout.

B2: Ly612 (bispecific antibody, human IgG1, kappa)
heavy: EVQLQQSGPELVKPGASVKMSCKASGYTFTSYVMHWVKQKPGQGLEWIGYINPYNDGTECTDKFKGKATLTSDKSSSTAYMELSSLTSEDSAVYYCASIYYGYDGTYFGVWGAGTSVTVSSASTKGPSVFPLAPSSKSTSGGTAALGCLVKDYFPEPVTVSWNSGALTSGVHTFPAVLQSSGLYSLSSVVTVPSSSLGTQTYICNVNHKPSNTKVDKKVEPKSCDKTHTCPPCPAPELLGPSVFLFPPKPKDTLMISRTPEVTCVVVDVSHEDPEVKFNWYVDGVEVHNAKTKPREEQYNSTYRVVSVLTVLHQDWLNGKEYKCKVSNKALPAPIEKTISKAKGQPREPQVYTLPPSREEMTKNQVSLTCLVKGFYPSDIAVEWESNGQPENNYKTTPPVLDSDGSFFLYSKLTVDKSRWQQGNVFSCSVMHEALHNHYTQKSLSLSPGGGGGSGGGGSGGGGSGGGGSDIQMTQSPSSLSASVGDRVTITCLASEDISNDLAWYQQKPGKAPKLLIYFVDRLLDGVPSRFSGSGSGTDFTLTISSLQPEDFATYYCQQSYKYPPTFGQGTKLEIKGGGGSGGGGSGGGGSGGGGSEVQLVESGGGLVQPGGSLRLSCAASGFTFTNYGLHWVRQAPGKGLEWVSSISPSGGVTYYRDSVKGRFTISRDNSKNTLYLQMNSLRAEDTAVYYCAKPFLGWGGANWIAHWGQGTLVTVSS
light: B1 light
notes: Ly383 HC (IgG1 mutated Fc)-TM559 scFv VL-VH + Ly383 LC
Consider B2, for which the binding result in assay [1] and in assay [2] was “binds” each time.

B3: Ly613 (bispecific antibody, human IgG1, kappa)
heavy: EVQLQQSGPELVKPGASVKMSCKASGYTFTSYVMHWVKQKPGQGLEWIGYINPYNDGTECTDKFKGKATLTSDKSSSTAYMELSSLTSEDSAVYYCASIYYGYDGTYFGVWGAGTSVTVSSASTKGPSVFPLAPSSKSTSGGTAALGCLVKDYFPEPVTVSWNSGALTSGVHTFPAVLQSSGLYSLSSVVTVPSSSLGTQTYICNVNHKPSNTKVDKKVEPKSCDKTHTCPPCPAPELLGPSVFLFPPKPKDTLMISRTPEVTCVVVDVSHEDPEVKFNWYVDGVEVHNAKTKPREEQYNSTYRVVSVLTVLHQDWLNGKEYKCKVSNKALPAPIEKTISKAKGQPREPQVYTLPPSREEMTKNQVSLTCLVKGFYPSDIAVEWESNGQPENNYKTTPPVLDSDGSFFLYSKLTVDKSRWQQGNVFSCSVMHEALHNHYTQKSLSLSPGGGGGSGGGGSGGGGSGGGGSEVQLVESGGGLVQPGGSLRLSCAASGFTFTNYGLHWVRQAPGKGLEWVSSISPSGGVTYYRDSVKGRFTISRDNSKNTLYLQMNSLRAEDTAVYYCAKPFLGWGGANWIAHWGQGTLVTVSSGGGGSGGGGSGGGGSGGGGSDIQMTQSPSSLSASVGDRVTITCLASEDISNDLAWYQQKPGKAPKLLIYFVDRLLDGVPSRFSGSGSGTDFTLTISSLQPEDFATYYCQQSYKYPPTFGQGTKLEIK
light: B1 light
notes: Ly383 HC (IgG1 mutated Fc)-TM559 scFv VH-VL + Ly383 LC
For B3, the binding result in assay [1] and in assay [2] was “binds” throughout.

B4: Ly614 (bispecific antibody, human IgG1, kappa)
heavy: QVQLQQPGAELVKPGASVKLSCKASGYTFTSYWMHWVKQRPGQGLEWIGMIHPNSGGTNYNEKFKGKGTLTVDKSSSTAYMQLSSLTSDDSAVYYCVTSQATWFAYWGQGTLVTVSAASTKGPSVFPLAPSSKSTSGGTAALGCLVKDYFPEPVTVSWNSGALTSGVHTFPAVLQSSGLYSLSSVVTVPSSSLGTQTYICNVNHKPSNTKVDKKVEPKSCDKTHTCPPCPAPELLGPSVFLFPPKPKDTLMISRTPEVTCVVVDVSHEDPEVKFNWYVDGVEVHNAKTKPREEQYNSTYRVVSVLTVLHQDWLNGKEYKCKVSNKALPAPIEKTISKAKGQPREPQVYTLPPSREEMTKNQVSLTCLVKGFYPSDIAVEWESNGQPENNYKTTPPVLDSDGSFFLYSKLTVDKSRWQQGNVFSCSVMHEALHNHYTQKSLSLSPGGGGGSGGGGSGGGGSGGGGSDIQMTQSPSSLSASVGDRVTITCKASQNIYIYLNWYQQKPGKAPKLLIYNTNNLQTGVPSRFSGSGSGTDFTLTISSLQPEDFATYYCLQHSSRRTFGGGTKVEIKGGGGSGGGGSGGGGSGGGGSQVQLVESGGGLVQPGGSLKLSCATSGFNFNDYFMNWVRQASGKGLEWVGQIRNKNYNYATYYTESLEGRVTISRDDSKNTAYLQMNSLKTEDTAVYYCTSYYYDGFADYFDYWGQGTTVTVSS
light: ENVLTQSPAIMSVSPGEKVTMTCRASSSVSSSYLHWYQQKSGASPKFWIYSTSNLASGVPARFSGSGSGTSYSLTISSVEAEDAATYYCQHYSGYPLTFGAGTKLELRRTVAAPSVFIFPPSDEQLKSGTASVVCLLNNFYPREAKVQWKVDNALQSGNSQESVTEQDSKDSTYSLSSTLTLSKADYEKHKVYACEVTHQGLSSPVTKSFNRGEC
notes: Ly387 HC (IgG1 mutated Fc)-TM740 scFv VL-VH + Ly387 LC
B4: the binding result in assay [1] and in assay [2] was “binds” each time.

B5: Ly615 (bispecific antibody, human IgG1, kappa)
heavy: QVQLQQPGAELVKPGASVKLSCKASGYTFTSYWMHWVKQRPGQGLEWIGMIHPNSGGTNYNEKFKGKGTLTVDKSSSTAYMQLSSLTSDDSAVYYCVTSQATWFAYWGQGTLVTVSAASTKGPSVFPLAPSSKSTSGGTAALGCLVKDYFPEPVTVSWNSGALTSGVHTFPAVLQSSGLYSLSSVVTVPSSSLGTQTYICNVNHKPSNTKVDKKVEPKSCDKTHTCPPCPAPELLGPSVFLFPPKPKDTLMISRTPEVTCVVVDVSHEDPEVKFNWYVDGVEVHNAKTKPREEQYNSTYRVVSVLTVLHQDWLNGKEYKCKVSNKALPAPIEKTISKAKGQPREPQVYTLPPSREEMTKNQVSLTCLVKGFYPSDIAVEWESNGQPENNYKTTPPVLDSDGSFFLYSKLTVDKSRWQQGNVFSCSVMHEALHNHYTQKSLSLSPGGGGGSGGGGSGGGGSGGGGSQVQLVESGGGLVQPGGSLKLSCATSGFNFNDYFMNWVRQASGKGLEWVGQIRNKNYNYATYYTESLEGRVTISRDDSKNTAYLQMNSLKTEDTAVYYCTSYYYDGFADYFDYWGQGTTVTVSSGGGGSGGGGSGGGGSGGGGSDIQMTQSPSSLSASVGDRVTITCKASQNIYIYLNWYQQKPGKAPKLLIYNTNNLQTGVPSRFSGSGSGTDFTLTISSLQPEDFATYYCLQHSSRRTFGGGTKVEIK
light: B4 light
notes: Ly387 HC (IgG1 mutated Fc)-TM740 scFv VH-VL + Ly387 LC
As to B5, the binding result in assay [1] and in assay [2] was “binds” throughout.

B6: Ly616 (bispecific antibody, human IgG1, kappa)
heavy: QVQLQQPGAELVKPGASVKLSCKASGYTFTSYWMHWVKQRPGQGLEWIGMIHPNSGGTNYNEKFKGKGTLTVDKSSSTAYMQLSSLTSDDSAVYYCVTSQATWFAYWGQGTLVTVSAASTKGPSVFPLAPSSKSTSGGTAALGCLVKDYFPEPVTVSWNSGALTSGVHTFPAVLQSSGLYSLSSVVTVPSSSLGTQTYICNVNHKPSNTKVDKKVEPKSCDKTHTCPPCPAPELLGPSVFLFPPKPKDTLMISRTPEVTCVVVDVSHEDPEVKFNWYVDGVEVHNAKTKPREEQYNSTYRVVSVLTVLHQDWLNGKEYKCKVSNKALPAPIEKTISKAKGQPREPQVYTLPPSREEMTKNQVSLTCLVKGFYPSDIAVEWESNGQPENNYKTTPPVLDSDGSFFLYSKLTVDKSRWQQGNVFSCSVMHEALHNHYTQKSLSLSPGGGGGSGGGGSGGGGSGGGGSDIQMTQSPSSLSASVGDRVTITCLASEDISNDLAWYQQKPGKAPKLLIYFVDRLLDGVPSRFSGSGSGTDFTLTISSLQPEDFATYYCQQSYKYPPTFGQGTKLEIKGGGGSGGGGSGGGGSGGGGSEVQLVESGGGLVQPGGSLRLSCAASGFTFTNYGLHWVRQAPGKGLEWVSSISPSGGVTYYRDSVKGRFTISRDNSKNTLYLQMNSLRAEDTAVYYCAKPFLGWGGANWIAHWGQGTLVTVSS
light: B4 light
notes: Ly387 HC (IgG1 mutated Fc)-TM559 scFv VL-VH + Ly387 LC
Consider B6, for which the binding result in assay [1] and in assay [2] was “binds” in each case.
